Experimental data from patent publication US20220098319A1 (SHANGHAI PHARMAEXPLORER, published 2022).
Positions count from the first letter of the chain named. Where two headings read alike, the source gives them in different places. Each block holds one binder with its values, some of them ahead of it.

Columns and labels:
[1] = molecular target: T1, cynomolgus monkey CD73 (on transfected CHOK1 cells) (cynomolgus monkey, UniProt A0A2K5V5U7 27-549); assay: FACS on CHOK1-cCD73 cells
T1 construct: whole, on cells; also called CHOK1-cCD73; CHOK1-CCD73
T1 sequence: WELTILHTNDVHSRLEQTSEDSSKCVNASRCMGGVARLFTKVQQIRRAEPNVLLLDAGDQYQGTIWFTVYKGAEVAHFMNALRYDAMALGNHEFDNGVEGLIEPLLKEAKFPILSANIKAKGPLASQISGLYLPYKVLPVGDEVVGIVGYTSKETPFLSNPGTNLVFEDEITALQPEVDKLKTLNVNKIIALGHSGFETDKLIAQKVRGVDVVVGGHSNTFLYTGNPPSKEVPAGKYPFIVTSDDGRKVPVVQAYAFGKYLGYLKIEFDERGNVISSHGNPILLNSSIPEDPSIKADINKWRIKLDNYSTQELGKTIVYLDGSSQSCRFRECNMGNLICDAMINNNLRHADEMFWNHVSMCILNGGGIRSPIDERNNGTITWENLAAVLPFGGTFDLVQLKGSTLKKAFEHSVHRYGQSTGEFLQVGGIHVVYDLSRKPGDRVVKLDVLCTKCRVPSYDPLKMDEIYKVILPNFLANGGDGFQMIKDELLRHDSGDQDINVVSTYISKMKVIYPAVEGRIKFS

[2] = molecular target: T2, human CD73 (full length, on transfected CHOK1 cells) (human, UniProt P21589 27-549); assay: FACS on CHOK1-hCD73 cells
T2 construct: whole, on cells; The same id is used for CD73 on human CD4+ T cells in the proliferation assays; also called CHOK1-hCD73; hCD73
T2 sequence (looked up): T1 sequence with T199M, A350T, I466V

[3] = molecular target: T3, His-tagged CD73 extracellular domain protein (hCD73 ECD-His) (human, UniProt P21589 27-547); assay: Octet BLI, antibody on AHC sensor, antigen 50-200 nM, 1:1 fit
T3 construct: Expressed in CHO cells from pTT5-hCD73 ECD-His6, purified on nickel column; also called hCD73 ECD-His6; human CD73 ECD
T3 sequence: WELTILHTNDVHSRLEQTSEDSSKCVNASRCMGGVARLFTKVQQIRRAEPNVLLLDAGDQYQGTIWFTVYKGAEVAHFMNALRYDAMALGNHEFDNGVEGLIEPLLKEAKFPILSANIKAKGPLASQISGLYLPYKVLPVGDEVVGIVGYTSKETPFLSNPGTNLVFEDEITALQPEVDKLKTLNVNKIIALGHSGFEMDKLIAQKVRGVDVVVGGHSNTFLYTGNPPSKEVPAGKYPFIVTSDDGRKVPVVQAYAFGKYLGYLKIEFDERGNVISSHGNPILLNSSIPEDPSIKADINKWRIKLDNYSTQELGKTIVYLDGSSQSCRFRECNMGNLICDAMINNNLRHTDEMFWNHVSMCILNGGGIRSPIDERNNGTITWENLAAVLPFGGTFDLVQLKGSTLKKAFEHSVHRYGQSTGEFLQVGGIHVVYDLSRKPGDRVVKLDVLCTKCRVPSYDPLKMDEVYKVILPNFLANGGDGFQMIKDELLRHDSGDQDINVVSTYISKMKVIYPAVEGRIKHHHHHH
Excerpt: Octet Red 96 was selected as the test instrument, and AHC biosensor was selected as the test sensor in this experiment. Anti-human IgG Fc antibody has been immobilized on the AHC sensor, which can be used to directly capture the 15 antibodies in this experiment. Then the sensor was immersed in the analysis sample (antigen). There were five steps in this experiment: 1, Baseline (120 s) 2, Loading (capture antibody) (300 s) 3, Baseline (120 s) 4, Association (binding antigen) (180 s) 5, Dissociation (antigen dissociation) (1200 s). After the test was completed, the regeneration buffer (Glycine PH1.5) and the neutralization buffer (1*PBS buffer) were alternately immersed for 5 seconds, and the sensor was regenerated by a total of five cycles. The maximum number of sensor regeneration times is 10. The running buffer in this experiment is the sample diluent (1*PBS buffer containing 0.02% Tween20 and 0.1% BSA), that is, the buffer used in the Baseline step, the Dissociation step, and the blank analyte sample. Four sensors are used at one running in this experiment.
Sample treatment: all the antibodies were diluted to the working concentration of 10 ug/ml with sample diluent (1*PBS buffer containing 0.02% Tween20 and 0.1% BSA), and the analyte samples (antigens) were diluted to three working concentrations: 200 nM, 100 nM and 50 nM.
For data analysis, Octet Data Analysis (version 7.0) was used to calculate the response signal value (the signal of the coupled analyte sample minus the signal of the blank analyte sample), and a 1:1 binding model was used to fit the data.

[4] = molecular target: T4, murine CD73 (on transfected CHOK1 cells) (mouse, UniProt Q61503 29-551); assay: FACS on CHOK1-mCD73 cells
T4 construct: whole, on cells; also called CHOK1-mCD73; mCD73
T4 sequence (looked up): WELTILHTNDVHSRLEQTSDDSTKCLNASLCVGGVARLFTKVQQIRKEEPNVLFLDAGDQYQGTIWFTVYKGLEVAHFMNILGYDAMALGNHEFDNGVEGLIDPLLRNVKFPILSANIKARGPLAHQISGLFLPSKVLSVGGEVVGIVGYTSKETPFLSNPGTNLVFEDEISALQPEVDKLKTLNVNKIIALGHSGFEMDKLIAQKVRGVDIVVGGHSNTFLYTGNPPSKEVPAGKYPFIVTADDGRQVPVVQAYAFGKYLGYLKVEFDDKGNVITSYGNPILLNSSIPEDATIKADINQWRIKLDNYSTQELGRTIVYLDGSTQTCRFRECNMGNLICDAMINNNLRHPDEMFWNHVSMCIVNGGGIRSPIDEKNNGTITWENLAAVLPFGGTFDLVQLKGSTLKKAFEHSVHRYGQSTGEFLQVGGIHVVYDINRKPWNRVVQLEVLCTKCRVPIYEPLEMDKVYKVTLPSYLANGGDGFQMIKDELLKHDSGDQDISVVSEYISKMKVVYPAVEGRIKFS

[5] = molecular target: T2, human CD73 (full length, on transfected …); assay: cell-based or functional assay
[6] = molecular target: T1, cynomolgus monkey CD73 (on transfected …); assay: FACS on CHOK1-cCD73 cells; remark: listed apart in the source
[7] = molecular target: T4, murine CD73 (on transfected CHOK1 cells); assay: FACS on CHOK1-mCD73 cells; remark: listed apart in the source
[8] = molecular target: T2, human CD73 (full length, on transfected …); assay: FACS on CHOK1-hCD73 cells
Experimental: The titration binding curve was produced by the following method:
The CHOK1 stable cell line transfected with human CD73 was expanded to a 75-90% confluence in a T-75 cell culture flask. The medium was aspirated, washed 1-2 times with PBS, and then treated with trypsin (Tryple express: Life technology) and cells were collected. The cells were washed with PBS buffer for 1-2 times. After counted, the cells were diluted with PBS to 1-2×10⁶ cells per ml, added with 1% fetal bovine serum (FBS) blocking solution, incubated on ice for 20-30 minutes, and then washed twice with HBSS by centrifugation. The collected cells were suspended with FACS buffer (PBS+2% FBS) to 2×10⁶ cells/ml, added to a 96-well FACS reaction plate at 100 microliters per well, and centrifuged at 300 g for 5 minutes to discard the supernatant. Anti-CD73 antibody was prepared with blocking solution to an initial concentration of 10 ug/ml and serially diluted at 8 points. 100 microliter per well of that antibody sample to be tested were added and incubated at 4° C. for 1-2 hours. […] The plate was washed 2-3 times with FACS buffer by centrifugation, added with 100 μl fixative solution (4% Paraformaldehyde) per well to suspend the cells. 5-10 minutes later, it was washed 1-2 times with FACS buffer by centrifugation. The cells were suspended with 100 microliters of FACS buffer, FACS (FACSCalibur, BD) was used for detection and the results were analyzed, as shown in FIG. 1 and Table 4.

[9] = molecular target: T2, human CD73 (full length, on transfected …); assay: cell-based or functional assay; remark: listed apart in the source

B1: mab034xhIgG1TM (clone 60G1C8), mouse-human chimeric anti-CD73 antibody (antibody, V domains shown)
VH: DVQLQESGPGLVKPSQSLSLTCSVTGYSITSRYYWNWIRQFPGNKLEWMGYMTYDGTNNYNPSLTNRISITRDTSKNQFFLKLNSVTAEDTATYFCARGGWDPFDYWGQGTTLTVSS
VL: DIQMTQSPAALSASVGETVTITCRASDNIYSYLAWYQQKQGKCPQLLVKNAKTLAEGVPSRFSGSGSGTQFSLRINSLQPDDFGTYYCQHYYGTPLTFGAGTKLELK
notes: also called mAb034 chimeric antibody
- EC50 [1]: > 10 nM
- MAX MFI fold [1]: > 150 fold
- EC50 [2]: 5.7 nM
- MAX MFI fold [2]: 154 fold
- Kd [3]: 0.0577 nM
- koff [3]: 2.36e-05 s⁻¹
- kon [3]: 409000 M⁻¹ s⁻¹
- binding result [4]: no binding
- Inhibition assay of enzyme activity, IC50 [5]: 0.2 nM
- Inhibition assay of enzyme activity, MAX % inhibition [5]: 61.5%

B3: mab032xhIgG1TM (clone 56F12H8), mouse-human chimeric anti-CD73 antibody (antibody, V domains shown)
VH: EVQLVESGGDLVKPGGSLKLSCAASGFTFSTHGMSWVRQTPDKRLEWVAIISSDRSDIDYTDNVKGRFTISRDNGKNTLYLQMSSLKSEDTAIYHCARHRGYDGFYYAMDYWGQGTSVTVSS
VL: DILMTQSPSSLTVTAGEKVTMSCRSSQSLLNSGNQKNYLTWYQQRPGRPPKLLIYWASTRISGVPDRFAGSGSGTDFTLTISIVQAEDLAVYYCQNDYSYPLTFGSGTKLELR
notes: also called mAb032 chimeric antibody
- EC50 [1]: 2.6 nM
- MAX MFI fold [1]: 167 fold
- EC50 [2]: 3.2 nM
- MAX MFI fold [2]: 130 fold
- Kd [3]: 0.279 nM
- koff [3]: 1.95e-05 s⁻¹
- kon [3]: 70000 M⁻¹ s⁻¹
- binding result [4]: no binding
- Inhibition assay of enzyme activity, IC50 [5]: 0.3 nM
- Inhibition assay of enzyme activity, MAX % inhibition [5]: 65.1%

B4: mAb032 (clone 56F12H8), murine anti-CD73 antibody (antibody, V domains shown)
VH: B3 VH
VL: B3 VL
notes: Purified from hybridoma supernatant
- EC50 [6]: 0.7 nM
- MAX MFI [6]: 6050 MFI
- binding result [7]: no binding (tested: 10 ug/ml initial concentration)
- EC50 [8]: 2.6 nM
- MAX MFI [8]: 7660 MFI
- Enzyme activity blocking assay, IC50 [9]: 1.2 nM
- Enzyme activity blocking assay, MAX % inhibition [9]: 66.9%

More lines, now with the values ahead:

- EC50 [1]: 0.7 nM
- MAX MFI fold [1]: 124 fold
- EC50 [2]: 1.6 nM
- MAX MFI fold [2]: 126 fold
- Kd [3]: 0.0751 nM
- koff [3]: 1.91e-05 s⁻¹
- kon [3]: 255000 M⁻¹ s⁻¹
- binding result [4]: no binding
- Inhibition assay of enzyme activity, IC50 [5]: 0.6 nM
- Inhibition assay of enzyme activity, MAX % inhibition [5]: 57.7%
B2: mab020xhIgG1TM (clone 24D6B4), mouse-human chimeric anti-CD73 antibody (antibody, V domains shown)
VH: EVQLQQSGPELVKPGASVKIPCKASGYTFTDYNMDWVKQRHGKSLEWIGDINPNNGGTVYNQKFKGKATLTVDKSSNTAYMELRSLTSEDTAVYYCARISGTGYWYFDVWGTGTTVTVSS
VL: DIQMTQSPASLSVSVGETVTITCRASENIYSNLAWYQQKQGKSPQLLVYGATNLADGVPSRFSGSDSGTQYSLKINSLQSEDFGSYYCQHFWGTPWTFGGGTKLEIK
notes: also called mAb020 chimeric antibody

- EC50 [1]: 1.5 nM
- MAX MFI fold [1]: 90.2 fold
- EC50 [2]: 2 nM
- MAX MFI fold [2]: 125 fold
- Kd [3]: 0.0213 nM
- koff [3]: 6.42e-06 s⁻¹
- kon [3]: 301000 M⁻¹ s⁻¹
- binding result [4]: no binding
- Inhibition assay of enzyme activity, IC50 [5]: 0.3 nM
- Inhibition assay of enzyme activity, MAX % inhibition [5]: 60.6%
B5: mab036xhIgG1TM (clone 66H6C12), mouse-human chimeric anti-CD73 antibody (antibody, V domains shown)
VH: QVQLQQSGAEVVKPGASVKISCKASGYVFSSYWINWVKQRPGKGLEWIGKIFPGNGDTDYNGNFKGKATLTADKSSSTAYMQLSSLTSEDSAVYFCAGFADWGQGTLVTVSA
VL: DIQMTQSPSSLSASLGERVSLTCRASQDIGERLIWLQQEPDGTFKRLIYATSSLDSGVPKRFSGSSSGSDYSLTISRLESEDFVDYYCLQYASSPYTFGGGTKLEIK
notes: also called mAb036 chimeric antibody
